Data set [1] addresses T1, HE4-GST (human) (UniProt Q14508).
T1 sequence: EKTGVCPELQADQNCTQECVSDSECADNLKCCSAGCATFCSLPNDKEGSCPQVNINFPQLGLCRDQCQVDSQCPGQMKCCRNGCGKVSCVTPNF
The data set can be described thus: fluorescence anisotropy. The settings on record: TGK: 25 mM Tris, 192 mM glycine, 5 mM KH2PO4, pH 8.3, 25 C, no divalent cations; APCE 10 nM DNA, 1 mg/mL BSA; anisotropy 0.1 mg/mL BSA, HE4-GST 0-750 nM. (In fluorescence polarisation assays a small probe gives low polarisation when free and higher when bound to something large.)

The target of data set [2] is T2, HE4-GST (human, UniProt Q14508 31-124).
T2 sequence: T1 sequence
The data set can be described thus: fluorescence anisotropy; TGK: 25 mM Tris, 192 mM glycine, 5 mM KH2PO4, pH 8.3, 25 C, no divalent cations; APCE 10 nM DNA, 1 mg/mL BSA; anisotropy 0.1 mg/mL BSA, HE4-GST 0-750 nM. As to conditions: protein: commercial; tags: GST; label: 5' FAM (APCE); 5' TEX615 (anisotropy).

For data set [3], the target named is T2, HE4-GST. The data set can be described thus: affinity probe capillary electrophoresis; TGK: 25 mM Tris, 192 mM glycine, 5 mM KH2PO4, pH 8.3, 25 C, no divalent cations; APCE 10 nM DNA, 1 mg/mL BSA; anisotropy 0.1 mg/mL BSA, HE4-GST 0-750 nM. The settings on record: protein: commercial; tags: GST; label: 5' FAM (APCE); 5' TEX615 (anisotropy).
Data set [4] deals with T2, HE4-GST. The data set can be described thus: affinity probe capillary electrophoresis; discrepant with anisotropy; TGK: 25 mM Tris, 192 mM glycine, 5 mM KH2PO4, pH 8.3, 25 C, no divalent cations; APCE 10 nM DNA, 1 mg/mL BSA; anisotropy 0.1 mg/mL BSA, HE4-GST 0-750 nM. The settings on record: protein: commercial; tags: GST; label: 5' FAM (APCE); 5' TEX615 (anisotropy).

ATGGTCGCAAGAACTGAGAATTTAC [D3] came in with a Kd in data set [1] of 26 µM.

B1: A3 (ssDNA)
DNA: CACAGTGCGTCACATTTAGGGCATT
In the case of B1, the results for the Kd in data set [2] and in data set [3] were 9100 nM and 500 nM, respectively.

B2: A1 (ssDNA)
DNA: TTATCGTACGACAGTCATCCTACAC
Turning to B2, the Kd in data set [2] turned out to be 2200 nM; in data set [3], 390 nM.

B3: B10 (ssDNA)
DNA: CAGTGCGTGCTTATTGGCGTAGCGTC
B3: the Kd in data set [2] is 280 nM; in data set [3], 870 nM.

B4: L1 (ssDNA)
DNA: CCGTCTTCTGCTTGAAAAAAAAAAA
Regarding B4, in data set [4], the Kd came out at 300 nM.

What is called Kd is the constant that tells how readily two partners part at equilibrium.
